Ends that are not written are not given here.
Key:
[1] = target: T1, human serum albumin (human, UniProt P02768 25-609); experiment: phage ELISA on plate-coated HSA, sample row, dilution column 3 of 12
T1 construct: Bought protein; coated on plates (ELISA) or coupled to a CM5 chip (SPR); also called HSA; human albumin

[2] = target: T1, human serum albumin; experiment: phage ELISA on plate-coated HSA, sample row, dilution column 1 of 12
[3] = target: T1, human serum albumin; experiment: phage ELISA on plate-coated HSA, Table 3 absorbance (sample minus blank), dilution column 7 of 12
[4] = target: T1, human serum albumin; experiment: phage ELISA on plate-coated HSA, sample row, dilution column 2 of 12
[5] = target: T1, human serum albumin; experiment: SPR (BIAcore 3000), HSA on CM5 chip, polypeptide injected, 1:1 model
Method: Signal of conjugated channel subtracted by that of unconjugated channel of injected solution was calculated as the amount of bound peptides during a defined period, as shown in FIG. 4. PBS buffer containing 0.05% Tween-20 was used for dilution of all samples. SPR curve was evaluated by BIAcore™ kinetics evaluation software (Version 4.1). […] Kd was calculated from binding rate (kₒₙ) and dissociating rate (koff), i.e. dissociation constant.

T1 sequence (P02768 25-609 limits assumed): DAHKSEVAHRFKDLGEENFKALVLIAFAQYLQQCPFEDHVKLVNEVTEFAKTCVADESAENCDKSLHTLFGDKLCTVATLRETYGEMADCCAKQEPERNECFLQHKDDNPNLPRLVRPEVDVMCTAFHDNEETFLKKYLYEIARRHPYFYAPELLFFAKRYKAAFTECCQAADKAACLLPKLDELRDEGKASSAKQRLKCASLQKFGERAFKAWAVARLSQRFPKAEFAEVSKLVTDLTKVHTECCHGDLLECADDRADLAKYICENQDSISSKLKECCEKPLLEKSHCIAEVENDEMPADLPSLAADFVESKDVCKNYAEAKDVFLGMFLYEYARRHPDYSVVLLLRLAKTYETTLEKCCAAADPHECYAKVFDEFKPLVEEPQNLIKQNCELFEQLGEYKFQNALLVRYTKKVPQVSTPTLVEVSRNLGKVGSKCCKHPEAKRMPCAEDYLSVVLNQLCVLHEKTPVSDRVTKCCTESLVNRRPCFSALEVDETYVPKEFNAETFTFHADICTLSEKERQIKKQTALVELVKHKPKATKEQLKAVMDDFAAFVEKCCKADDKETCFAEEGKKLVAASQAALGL

B1: Phage ID NO. 3 (M13 phage displaying the peptide of SEQ ID NO. 3, DICLPRWGCLWE) (peptide)
peptide: DICLPRWGCLWE
modifications: not fully specified (bridges); cysteine pairing not given here; also: displayed on M13 phage coat protein
notes: Tested as whole phage particles, not as free peptide; not shown: not described
absorbance at 405 nm [1]: 0.1

B2: Phage ID NO. 7 (M13 phage displaying the peptide of SEQ ID NO. 7, SLFRHQHATPQI) (peptide)
peptide: SLFRHQHATPQI
modifications: also: displayed on M13 phage coat protein
notes: as for B1
absorbance at 405 nm [2]: 0.08 | absorbance at 405 nm [3]: 0.1 | absorbance at 405 nm [4]: 0.08

B3: DP5.1 fusion polypeptide (peptide)
peptide: LPWHLKYREPPR
modifications: not fully specified; also: fusion polypeptide ABP-LK-GLP, linker and GLP-1 part not given here
notes: also called ABP-LK-GLP; not shown: rest of DP5.1 (any N-terminal Pro, linker, GLP-1 part) is printed nowhere
Kd [5]: 4.6 µM

Source: US20100075897A1, “METHOD FOR S[…] BIOACTIVE PEPTIDES AND APPLICATION THEREOF” (JINAN UNIVERSITY, priority 2008, published 2010)
